Patent US11999794B2, “Human mesothelin chimeric antigen receptors and uses thereof” (Novartis AG, priority 2013, dated 2024)
“Also recorded” adds a separate entry of the source.

B1: M17: human anti-mesothelin scFv SEQ ID NO: 55; full CAR SEQ ID NO: 79 (protein)
scFv: EVQLVESGGGLVQPGRSLRLSCAASGFTFDDYAMHWVRQAPGKGLEWVSGISWNSGSTGYADSVKGRFTISRDNAKNSLYLQMNSLRAEDTALYYCAKDSSSWYGGGSAFDIWGQGTMVTVSSGGGGSGGGGSGGGGSSSELTQDPAVSVALGQTVRITCQGDSLRSYYASWYQQKPGQAPVLVIYGKNNRPSGIPDRFSGSSSGNTASLTITGAQAEDEADYYCNSRGSSGNHYVFGTGTKVTVL
B2: M16: human anti-mesothelin scFv SEQ ID NO: 54; full CAR SEQ ID NO: 78 (protein)
scFv: EVQLVESGGGLVQPGRSLRLSCAASGFTFDDYAMHWVRQAPGKGLEWVSGISWNSGSTGYADSVKGRFTISRDNAKNSLYLQMNSLRAEDTALYYCAKDSSSWYGGGSAFDIWGQGTMVTVSSGGGGSGGGGSGGGGSSSELTQEPAVSVALGQTVRITCQGDSLRSYYASWYQQKPGQAPVLVIFGRSRRPSGIPDRFSGSSSGNTASLIITGAQAEDEADYYCNSRDNTANHYVFGTGTKLTVL
B3: M14: human anti-mesothelin scFv SEQ ID NO: 52; full CAR SEQ ID NO: 76 (protein)
scFv: QVQLVQSGAEVRAPGASVKISCKASGFTFRGYYIHWVRQAPGQGLEWMGIINPSGGSRAYAQKFQGRVTMTRDTSTSTVYMELSSLRSDDTAMYYCARTASCGGDCYYLDYWGQGTLVTVSSGGGGSGGGGSGGGGSGGGGSDIQMTQSPPTLSASVGDRVTITCRASENVNIWLAWYQQKPGKAPKLLIYKSSSLASGVPSRFSGSGSGAEFTLTISSLQPDDFATYYCQQYQSYPLTFGGGTKVDIK
B4: M12: human anti-mesothelin scFv SEQ ID NO: 50; full CAR SEQ ID NO: 74 (protein)
scFv: QVQLVQSGAEVKKPGASVKVSCKASGYTFTGYYMHWVRQAPGQGLEWMGRINPNSGGTNYAQKFQGRVTMTTDTSTSTAYMELRSLRSDDTAVYYCARTTTSYAFDIWGQGTMVTVSSGGGGSGGGGSGGGGSGGGGSDIQLTQSPSTLSASVGDRVTITCRASQSISTWLAWYQQKPGKAPNLLIYKASTLESGVPSRFSGSGSGTEFTLTISSLQPDDFATYYCQQYNTYSPYTFGQGTKLEIK
B5: M23: human anti-mesothelin scFv SEQ ID NO: 61; CDRs in Tables 4 and 5 (protein)
scFv: QVQLQQSGAEVKKPGASVKVSCKASGYTFTNYYMHWVRQAPGQGLEWMGIINPSGGYTTYAQKFQGRLTMTRDTSTSTVYMELSSLRSEDTAVYYCARIRSCGGDCYYFDNWGQGTLVTVSSGGGGSGGGGSGGGGSGGGGSDIQLTQSPSTLSASVGDRVTITCRASENVNIWLAWYQQKPGKAPKLLIYKSSSLASGVPSRFSGSGSGAEFTLTISSLQPDDFATYYCQQYQSYPLTFGGGTKVDIK
B6: M21: human anti-mesothelin scFv SEQ ID NO: 59; CDRs in Tables 4 and 5 (protein)
scFv: QVQLVQSWAEVKKPGASVKVSCKASGYTFTSYYMHWVRQAPGQGLEWMGIINPSGGSTSYAQKFQGRVTMTRDTSTSTVYMELSNLRSEDTAVYYCARSPRVTTGYFDYWGQGTLVTVSSGGGGSGGGGSGGGGSGGGGSDIQLTQSPSTLSASVGDRVTITCRASQSISSWLAWYQQKPGKAPKLLIYKASSLESGVPSRFSGSGSGTEFTLTISSLQPDDFATYYCQQYSSYPLTFGGGTRLEIK

molecular target: T1, biotinylated mesothelin ECD (Homo sapiens, UniProt Q13421); test: Surface plasmon resonance (Biacore T200) binding affinity of purified scFvs; conditions: 1:1 Binding fit
T1 construct: made in house; host or cells: HEK293F (transient)
T1 sequence (Q13421 with tags, fused parts or gaps): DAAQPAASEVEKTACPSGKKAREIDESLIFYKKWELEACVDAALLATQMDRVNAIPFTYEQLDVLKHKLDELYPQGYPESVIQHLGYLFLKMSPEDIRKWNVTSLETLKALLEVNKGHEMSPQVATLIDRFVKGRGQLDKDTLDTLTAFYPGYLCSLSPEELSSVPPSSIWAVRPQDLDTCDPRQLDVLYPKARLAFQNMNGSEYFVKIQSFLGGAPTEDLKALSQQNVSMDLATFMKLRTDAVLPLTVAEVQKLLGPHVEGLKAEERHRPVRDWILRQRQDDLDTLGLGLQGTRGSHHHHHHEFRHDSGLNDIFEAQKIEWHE
Experimental: Binding affinity of purified scFvs was measured on a Biacore T200 system. Briefly, recombinant human biotinylated mesothelin ECD was immobilized on a streptavidin (SA) sensor chip surface at a density of 150 RU. Purified scFv was injected over the chip under constant flow rate at three-fold serial dilutions. Association and dissociation rates of the protein complex were monitored for 270 seconds and 400 seconds, respectively. Double referencing was performed against a blank immobilized flow cell and a buffer blank. Affinity was determined with a Langmuir 1:1 binding model when possible, for those scFVs where accurate fitting was not possible due to fast on and off rates, the steady state model was used.

| Molecule | ka [M⁻¹ s⁻¹] | kd [s⁻¹] |
| --- | --- | --- |
| B1 | 522000 | 0.0145 |
| B2 | 174000 | 0.00395 |
| B3 | 2.75e+06 | 0.00251 |

same assay, conditions: 1:1 Binding or Steady State Affinity fit

| Molecule | Kd [nM] |
| --- | --- |
| B1 | 27.8 |
| B2 | 22.7 |
| B4 | 307 |
| B3 | 0.9 |
| B5 | 114 |
| B6 | 110 |

tested on: not listed separately; test: Size exclusion chromatography (oligomerization state of expressed scFvs); assay type: physicochemical; conditions: purified scFv
Experimental: Size exclusion chromatography was performed to determine the oligomerization states of the expressed scFvs. 25 μg each was injected onto a TSKGel Super SW3000 4.6 mm×300 mm column (Tosoh Bioscience) heated to 35° C. The scFvs were eluted at 0.3 mL/min in 750 mM arginine, 1 mM EDTA, 20 mM sodium phosphate, 250 mM sodium chloride, pH 7.2; the UV absorbance was monitored at 280 nm.

| Molecule | % Monomer (SEC) [%] |
| --- | --- |
| B1 | >98 |
| B2 | 94.5 |
| B4 | 70 |
| B3 | 74.5 |
| B5 | 91 |
| B6 | >98 |

molecular target: T1, biotinylated mesothelin ECD; test: SPR relative epitope binning in comparison to SS1; assay type: binding; conditions: 50 nM SS1 captured first, then scFv at 100 nM
Experimental: In embodiments, the competition assay is an SPR-based assay. Briefly, the antigen, e.g., human mesothelin, is immobilized on a surface. Through a microflow system, a reference antibody is injected over the antigen layer. Upon binding of the reference antibody to the antigen, an increase in signal, typically expressed in response units (RU) is detected, e.g., reference signal. After a desired time, a test antibody is injected over the antigen layer. If the test antibody binds to a different region or epitope of the antigen, then an additional increase in signal is detected, e.g., a 5% or more, 10% or more, 15% or more, 20% or more, 25% or more, 30% or more, 35%, or more, 40% or more, 45% or more, 50% or more, 55% of more, 60% or more, 65% or more, 70% or more, 75% or more, 80% or more, 85% or more, 90% or more, or 95% or more increase in signal, e.g., RU, as compared to the highest signal detected upon binding of the reference antibody, e.g., the reference signal. If the test antibody binds to the same region or epitope of the antigen, then little or no increase in signal, e.g., RU, will be detected, e.g., less than 20%, less than 15%, less than 10%, less than 5%, less than 4%, less than 3%, less than 2%, or less than 1% increase in signal, e.g., RU, as compared to the highest signal detected upon binding of the reference antibody, e.g., the reference signal. When using this SPR-based competition assay, an antibody is said to compete with the reference antibody when less than 20%, less than 15%, less than 10%, less than 5%, less than 4%, less than 3%, less than 2%, or less than 1% increase in signal, e.g., RU, is detected when compared to the reference signal detected upon binding of the reference antibody to the antigen. An antibody is said to not compete, or compete poorly, with a reference antibody when a 5% or more, 10% or more, 15% or more, 20% or more, 25% or more, 30% or more, 35%, or more, 40% or more, 45% or more, 50% or more, 55% of more, 60% or more, 65% or more, 70% or more, 75% or more, 80% or more, 85% or more, 90% or more, or 95% or more increase in signal, e.g., RU, is detected when compared to the reference signal detected upon binding of the reference antibody to the antigen.
To determine the relative binding epitope of each of the scFvs in comparison to SS1, 50 nM SS1 was captured by biotinylated mesothelin ECD immobilized on a streptavidin sensor chip at a contact time of 180 seconds resulting in a relative density of 70 RU. Purified scFv at 100 nM (M5, M11, M12, M14, M16, M17, M21, or M23) was then immediately injected over the chip to minimize dissociation of the SS1/mesothelin complex. Binding of the secondary scFv was monitored for 270 seconds.

| Molecule | relative epitope binning against SS1 on human mesothelin |
| --- | --- |
| B1 | Competitive binding; also recorded: competitive binders with SS1 |
| B2 | Competitive binding; also recorded: competitive binders with SS1 |
| B4 | Competitive binding; also recorded: competitive binders with SS1 |
| B3 | Competitive binding; also recorded: competitive binders with SS1 |
| B5 | Competitive binding; also recorded: competitive binders with SS1 |
| B6 | Competitive binding; also recorded: competitive binders with SS1 |

tested on: Ovcar3; test: Luciferase-based killing assay; assay type: cell-based, human; conditions: E:T 10:1 to 1:1, 20 hours; FIG. 16A
Experimental: The ability for the CART-MSLN to target and kill tumor cells was also assessed in vitro. A luciferase-based assay was used, with tumor cell lines expressing luciferase reporters. Target cells (tumor cells) were plated at 20,000 targets/well. CART-MSLN were added at varying effector:target ratios, from 10:1, 5:1, 2.5:1, and 1:1. The cells were cultured for 20 hours, and the luminescence of each well was detected to determine the percentage of target cells killed. Luciferase-expressing Ovcar3 (ovarian cancer) and U87 mg (glioblastoma) cell lines were used as target cells.

| Molecule | killing of target tumor cells |
| --- | --- |
| B1 | performed similarly well in killing target tumor cells |

same assay, conditions: FIGS. 17A and 17B

| Molecule | specific killing within the panel of human meso CARs |
| --- | --- |
| B1 | highest specific killing of Ovcar3 cells |

tested on: Ovcar8; test: Ovcar8 xenograft model (Example 8); assay type: in vivo, NSG mice; conditions: OVCAR8-mcherry; 10×10^6 T cells, about 4×10^6 CART cells
Experimental: Anti-tumor activity of CART-MSLN was assessed in vivo in an Ovcar8 xenograft model. 10×10^6 Ovcar8 cells were implanted subcutaneously on day 0 in NSG mice. At day 14, 2×10^6 CART cells (CARTs expressing M5, M11, M17, M21, SS1, and CD19, or untransduced cells; 10×10^6 total T cells) in a 100 μl dose was administered intravenously. Mice and tumors were monitored for about 40 days after tumor cell implantation.
A second in vivo xenograft experiment was performed to assess the anti-tumor activity of a second set of CART-MSLN cells. 10×10^6 OVCAR8-mcherry cells were injected into NSG mice. Once tumors were 150-250 mm^2, mice were randomized into treatment groups. CARTs expressing M12, M14, M16, M23, ss1, CD19, or untreated cells were injected at a dose of 10×10^6 T cells in 100 μl. About 40% of T cells were expressing CAR, and therefore at the administered dosage, about 4×10^6 CART cells were delivered to each animal.

| Molecule | effect on tumor growth, second xenograft experiment |
| --- | --- |
| B2 | did not have an effect on tumor growth |
| B4 | did not have an effect on tumor growth |
| B3 | did not have an effect on tumor growth |
| B5 | did not have an effect on tumor growth |
